The target of data set [1] is T1, GAOR2 (FAD site in M-subunit) (Sulfurisphaera tokodaii, UniProt Q974U9).
T1 construct: gene ST0562; same native (LMS)2 complex as P2; M-subunit 278 aa holds FAD; Putative oxidoreductase iron-sulfur subunit (S-subunit)
T1 sequence (Q974U9 1-278): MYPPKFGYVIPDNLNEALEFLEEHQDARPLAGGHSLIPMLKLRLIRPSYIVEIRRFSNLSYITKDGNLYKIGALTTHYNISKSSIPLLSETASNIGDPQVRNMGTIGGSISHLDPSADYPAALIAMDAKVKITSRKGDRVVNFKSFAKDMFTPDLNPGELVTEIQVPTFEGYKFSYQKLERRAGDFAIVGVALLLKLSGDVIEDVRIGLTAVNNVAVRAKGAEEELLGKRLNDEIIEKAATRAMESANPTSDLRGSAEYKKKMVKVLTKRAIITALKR
T1 sequence (Q96Y29 1-706 partner): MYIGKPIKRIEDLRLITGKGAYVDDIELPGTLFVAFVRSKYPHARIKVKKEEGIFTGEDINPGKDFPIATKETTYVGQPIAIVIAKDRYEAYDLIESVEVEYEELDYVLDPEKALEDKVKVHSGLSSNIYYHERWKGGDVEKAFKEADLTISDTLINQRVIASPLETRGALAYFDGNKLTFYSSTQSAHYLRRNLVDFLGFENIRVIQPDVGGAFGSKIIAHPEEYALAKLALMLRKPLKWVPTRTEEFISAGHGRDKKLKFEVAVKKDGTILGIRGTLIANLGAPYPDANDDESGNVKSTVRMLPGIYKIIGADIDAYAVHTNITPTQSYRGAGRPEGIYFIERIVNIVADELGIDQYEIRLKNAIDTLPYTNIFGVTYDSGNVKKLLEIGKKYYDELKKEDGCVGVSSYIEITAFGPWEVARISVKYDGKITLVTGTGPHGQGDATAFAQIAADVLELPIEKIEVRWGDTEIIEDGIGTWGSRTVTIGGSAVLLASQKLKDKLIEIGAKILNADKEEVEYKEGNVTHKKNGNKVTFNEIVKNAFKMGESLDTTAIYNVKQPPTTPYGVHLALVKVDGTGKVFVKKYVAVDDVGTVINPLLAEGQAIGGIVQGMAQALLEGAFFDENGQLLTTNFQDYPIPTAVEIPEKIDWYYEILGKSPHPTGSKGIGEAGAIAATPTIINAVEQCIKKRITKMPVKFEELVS
T1 sequence (Q974V0 1-168 partner): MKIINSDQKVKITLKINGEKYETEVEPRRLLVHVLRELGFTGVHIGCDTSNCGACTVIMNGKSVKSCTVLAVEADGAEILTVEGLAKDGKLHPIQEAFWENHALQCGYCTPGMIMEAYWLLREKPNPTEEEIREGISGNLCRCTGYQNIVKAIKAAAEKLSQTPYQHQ
The data set is described as follows: X-ray crystal structure, […] Å. The class given is binding. To be noted: bound in M-subunit; co-purified with native enzyme; crystals at pH 4.5.

Data set [2] has as its target LMS hetero-trimer unit of GAOR2 (STK23390/STK05620/STK05610) (Sulfolobus tokodaii (endogenous, purified from the cells)). Briefly: SEC; Superdex 200 10/30 gel filtration in buffer II (20 mM Tris-HCl pH 7.5, 0.25 M NaCl), molecular weights estimated against protein standards; oligomer of LMS hetero-trimer units.
For data set [3] the target is unchanged. Briefly: crystal structure; GAOR2 purified from S. tokodaii, 8 mg/mL, sitting drop at 25°C, 0.1 M Na-acetate pH 4.5, 0.2 M CH3COONH4, 15% PEG 4,000; 2.2 Å; one LMS hetero-trimer in the asymmetric unit, (LMS)2 by crystallographic 2-fold symmetry.
The target in data set [4] is LMS hetero-trimer unit of GAOR1 (STK17810/STK17830/STK17820) (Sulfolobus tokodaii (endogenous, purified from the cells)). The data set is described as follows: SEC; Superdex 200 10/30 gel filtration in buffer II (20 mM Tris-HCl pH 7.5, 0.25 M NaCl), molecular weights estimated against protein standards; oligomer of LMS hetero-trimer units.
Substrate in data set [5]: O=C[C@H](O)CO
The data set is described as follows: purified protein. To be noted: 0.1 mM DCPIP as electron acceptor, 50 mM MOPS-NaOH pH 7.0, 70°C.

Substrate in data set [6]: O=CCc1c[nH]c2ccccc12
The data set is described as follows: purified protein. To be noted: 2 mM MV as electron acceptor, 50 mM MOPS-NaOH pH 7.0, 80°C. The class given is biochemical, Sulfurisphaera tokodaii.

Substrate in data set [7]: O=CC(O)COP(=O)(O)O
Briefly: purified protein. It is filed as biochemical, Sulfurisphaera tokodaii. To be noted: 2 mM MV as electron acceptor, 50 mM MOPS-NaOH pH 7.0, 80°C.

Substrate in data set [8]: CC=O
The data set is described as follows: purified protein. The class given is biochemical, Sulfurisphaera tokodaii. To be noted: 2 mM MV as electron acceptor, 50 mM MOPS-NaOH pH 7.0, 80°C.

Data set [9] concerns the molecule itself. The data set is described as follows: crystal structure; GAOR2 purified from S. tokodaii, 8 mg/mL, sitting drop at 25°C, 0.1 M Na-acetate pH 4.5, 0.2 M CH3COONH4, 15% PEG 4,000; 2.2 Å; one LMS hetero-trimer in the asymmetric unit, (LMS)2 by crystallographic 2-fold symmetry.

For `Cc1cc2nc3c(=O)[nH]c(=O)nc-3n(C[C@H](O)[C@H](O)[C@H](O)COP(=O)(O)OP(=O)(O)OC[C@H]3O[C@@H](n4cnc5c(N)ncnc54)[C@H](O)[C@@H]3O)c2cc1C` [FAD], the “X-ray crystal structure, 2.2 Å” value in data set [1] is “one Mo-PCD (L-subunit), one FAD (M-subunit), two [2Fe-2S] clusters”.

As usually defined, the stoichiometry N is a count of units in the complex or per binding partner. “LMS hetero-trimer unit of GAOR2 (STK23390/STK05620/STK05610) (complex)”: the stoichiometry N in data set [2] and in [3] was 2 each time.

For “LMS hetero-trimer unit of GAOR1 (STK17810/STK17830/STK17820) (complex)”, the stoichiometry N in [4] is 4.

B1: STK23390, molybdo-pyranopterin L-subunit of glyceraldehyde oxidoreductase GAOR2 (natural protein, UniProt Q96Y29 1-706, looked up)
chain: MYIGKPIKRIEDLRLITGKGAYVDDIELPGTLFVAFVRSKYPHARIKVKKEEGIFTGEDINPGKDFPIATKETTYVGQPIAIVIAKDRYEAYDLIESVEVEYEELDYVLDPEKALEDKVKVHSGLSSNIYYHERWKGGDVEKAFKEADLTISDTLINQRVIASPLETRGALAYFDGNKLTFYSSTQSAHYLRRNLVDFLGFENIRVIQPDVGGAFGSKIIAHPEEYALAKLALMLRKPLKWVPTRTEEFISAGHGRDKKLKFEVAVKKDGTILGIRGTLIANLGAPYPDANDDESGNVKSTVRMLPGIYKIIGADIDAYAVHTNITPTQSYRGAGRPEGIYFIERIVNIVADELGIDQYEIRLKNAIDTLPYTNIFGVTYDSGNVKKLLEIGKKYYDELKKEDGCVGVSSYIEITAFGPWEVARISVKYDGKITLVTGTGPHGQGDATAFAQIAADVLELPIEKIEVRWGDTEIIEDGIGTWGSRTVTIGGSAVLLASQKLKDKLIEIGAKILNADKEEVEYKEGNVTHKKNGNKVTFNEIVKNAFKMGESLDTTAIYNVKQPPTTPYGVHLALVKVDGTGKVFVKKYVAVDDVGTVINPLLAEGQAIGGIVQGMAQALLEGAFFDENGQLLTTNFQDYPIPTAVEIPEKIDWYYEILGKSPHPTGSKGIGEAGAIAATPTIINAVEQCIKKRITKMPVKFEELVS
notes: STK23390, L-subunit of GAOR2, Sulfolobus tokodaii; Carries Mo-PCD; Cys405 and Cys689 form a disulfide bridge; also called L-subunit of GAOR2; ST23390
For orientation: Km means the concentration of substrate that gives half-maximal velocity. A word on the kcat: it is the number of substrate molecules converted per active site and unit of time at saturation. Consider B1, for which the Michaelis-Menten constant (Km) amounted to 30 ± 9 µM in “purified protein [5]”, 92 ± 17 µM in the data set “purified protein [6]”, 85 ± 5 µM in the data set “purified protein [7]” and 1330 ± 20 µM in “purified protein [8]”. In addition, the kcat in “purified protein [5]” was 50.5 ± 0.05 s⁻¹; in “purified protein [6]”, 2.77 ± 0.22 s⁻¹; in “purified protein [7]” it was 0.65 ± 0.01 s⁻¹; in “purified protein [8]” it was 3.38 ± 0.02 s⁻¹. Moreover, the “stoichiometry N” value in [9] worked out at 2.

B2: GAOR3 (Sulfurisphaera tokodaii str. 7) (protein)
chain: MYVGQRVKRKEDLKLITGSGRYIDDIEIPGNLYIAILRSSVAHAKLKKIEYSDVLKLNGVYGVITGLTIPVENRPRNFPMAKDEILYMGQPIAAVLAKDRYVAVDALDYISYDYEELPAVIDPEEAINSKVKAIEDYDNIIYKKTYSGGNAEEAYEKSDVKIEEKLVISRVYAAPMEPRGLVVDYQQDRLTVYASTQSPHYMRSFLLSAFGDKVNDIRVIQADVGGAFGSKLFPYPEDYIAVFAALTYKRPVKLVNTRRDDLFSTYHSRGQIHKVKVGASKDGKINSILDDLIIDLGAAWHGTYLADIPATLITGPYDIKNAKVNVFGVLTNKTPLDQYRGAGRPEAAFVYERIMDIVADELKIDPIELRRKNIIQSTPYKNVMGLTYDSGDYNALLTKAESYYREMEQRAEELRRQGKRVGVGLSFYIEQNNFGPWESASVRLLSNGKVEVVIGAAPHGQGTATGIAQIVADELEISIDDVEVTWGDTDKISNAFGTYGSRSLTLAGNAALLASRKLKENIMKLAAQFMKSDVEELQYKDGKVFNPKTGKSMTLKEIAIKVTSNLGGVWRYKAEPTLEATASFGFDNYTFPYGSHIAMVEVTDEGVVKVLDYVAIDDIGVVVNPMLAEGQVHGGVIQGFGETLLEQIVYDNNGNLLTSTFADYLIPSAVESFNMKWFYTEIGKSNAPLPAKGIGEGATIGAPPALIRAIERAIGKRLTALPVKMEELSK
notes: LMS hetero-trimer; L 730 aa, M 278 aa, S 168 aa; 85 kDa by gel filtration; M-subunit); Putative oxidoreductase iron-sulfur subunit (S-subunit)
For B2, the Michaelis constant (Km) in “purified protein [5]” (enzyme about 70% pure) stood at 11 ± 0 µM; in “purified protein [6]” (enzyme about 70% pure) it was 370 ± 390 µM; in the data set “purified protein [7]” (enzyme about 70% pure) it was 3.5 ± 1.1 µM. Further, the kcat in “purified protein [5]” (enzyme about 70% pure) was found to be 3.58 ± 0.11 s⁻¹; in “purified protein [6]” (enzyme about 70% pure) it was 3.58 ± 2.49 s⁻¹; in the data set “purified protein [7]” (enzyme about 70% pure), 0.43 ± 0.03 s⁻¹.

Values taken from publication PMC4726530 (PLoS ONE, 2016).
